Substitutions are numbered along the chain they refer to.
T1: Human Ube2T Arg99Ser/Ser101Arg (human, UniProt Q9NPD8 1-197, Arg99Ser | Ser101Arg)
T1 construct: Ube2T, human, double point mutant; also called Arg99Ser/Ser101Arg-Ube2T; source: E. coli, expressed as WT protein, purified; not shown: 6xHis-Smt3, N-terminal, cleaved
T1 sequence (looked up): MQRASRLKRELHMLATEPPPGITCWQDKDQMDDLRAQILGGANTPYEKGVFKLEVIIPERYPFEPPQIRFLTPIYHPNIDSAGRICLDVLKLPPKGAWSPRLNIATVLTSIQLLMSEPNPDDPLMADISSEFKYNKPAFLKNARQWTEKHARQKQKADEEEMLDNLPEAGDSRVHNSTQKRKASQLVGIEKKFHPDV

T2: Human Ube2T Ser5Arg (human, UniProt Q9NPD8 1-197, Ser5Arg)
T2 construct: Ube2T, human, point mutant; also called Ser5Arg-Ube2T; source: E. coli, expressed as WT protein, purified; not shown: 6xHis-Smt3, N-terminal, cleaved
T2 sequence (looked up): T1 sequence (looked up) with S5R, S99R, R101S

B1: Human FANCL RING domain (residues 289–375) (domain or fragment, UniProt Q9NW38 289-375, looked up)
chain: EIDFPARAILEKSDFTMDCGICYAYQLDGTIPDQVCDNSQCGQPFHQICLYEWLRGLLTSRQSFNIIFGECPYCSKPITLKMSGRKH
notes: FANCL, human, RING domain, residues 289-375, cloned from synthetic codon-optimised human FANCL DNA (GeneArt); also called WT RING; source: E. coli BL21, purified (Ni-NTA, Ulp1 cleavage, Superdex); not shown: 6xHis-Smt3, N-terminal, cleaved

Tests used:
Ube2T (Homo sapiens) = Ube2T (Homo sapiens) (UniProt Q9NPD8); conditions: cited from earlier work
[1] = biological target: T1, Human Ube2T Arg99Ser/Ser101Arg; assay: SEC; analytical size-exclusion chromatography, Superdex 75 10/300; RING domain and one E2 incubated 1 hr on ice in 0.1 M NaCl, 0.1 M Tris pH 8, 250 μM TCEP; complex read as a peak shift to the left; conditions: both partners purified
Human Ube2T Ser5Arg = biological target: T2, Human Ube2T Ser5Arg; assay: as above; conditions: both partners purified

Row | Molecule | Kd (Ube2T (Homo sapiens)) [µM] | binding result [1] | binding result (Human Ube2T Ser5Arg)
1 | FANCL (from UniProt Q9NW38) | 0.5 |  | 
2 | B1 |  | binds | binds

— publication PMC3979106 (Structure(London, England:1993), 2014)
